Assay results as given in patent publication US20110034673A1.

Molecular target: human HB-EGF on cells (membrane type and cell membrane-bound HB-EGF of human cancer cell lines) (human) (UniProt Q99075)
Assay: cell-based or functional assay

Chain of human HB-EGF on cells (membrane type and cell membrane-bound HB-EGF of human cancer cell lines) (human) (Q99075 63-148 limits assumed): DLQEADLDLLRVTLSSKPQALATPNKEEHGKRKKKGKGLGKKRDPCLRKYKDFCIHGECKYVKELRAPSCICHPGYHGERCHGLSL

B1: anti-HB-EGF humanized antibody HV0LV0 (antibody, V domains shown)
VH: QVQLVQSGAEVKKPGASVKVSCKASGYTFTTYGITWVRQAPGQGLEWMGEIFPGSGNTYYNEKFKGRVTITADKSTSTAYMELSSLRSEDTAVYYCARESFSDGYYGYFDYWGQGTLVTVSS
VL: DIVMTQSPDSLAVSLGERATINCKSSQSLLYSTNQKNSLAWYQQKPGQPPKLLIYWASTRESGVPDRFSGSGSGTDFTLTISSLQAEDVAVYYCQQYYRYPLTFGQGTKLEIK
For B1, the ADCC activity relative to KM3966 (fold of KM3966) was 0.1.
